Results published in patent US20140274782A1, “AFFINITY REAGENTS AND METHODS FOR DETECTION, PURIFICATION, AND PROTEOMIC ANALYSIS OF METHYLATED PROTEINS” (The Board of Trustees of the Leland Stanford Junior …, priority 2013, published 2014).

T1: G9a and GLP (Homo sapiens, UniProt Q96KQ7+Q9H9B1)
T1 sequence (Q96KQ7 2-1210 limits assumed): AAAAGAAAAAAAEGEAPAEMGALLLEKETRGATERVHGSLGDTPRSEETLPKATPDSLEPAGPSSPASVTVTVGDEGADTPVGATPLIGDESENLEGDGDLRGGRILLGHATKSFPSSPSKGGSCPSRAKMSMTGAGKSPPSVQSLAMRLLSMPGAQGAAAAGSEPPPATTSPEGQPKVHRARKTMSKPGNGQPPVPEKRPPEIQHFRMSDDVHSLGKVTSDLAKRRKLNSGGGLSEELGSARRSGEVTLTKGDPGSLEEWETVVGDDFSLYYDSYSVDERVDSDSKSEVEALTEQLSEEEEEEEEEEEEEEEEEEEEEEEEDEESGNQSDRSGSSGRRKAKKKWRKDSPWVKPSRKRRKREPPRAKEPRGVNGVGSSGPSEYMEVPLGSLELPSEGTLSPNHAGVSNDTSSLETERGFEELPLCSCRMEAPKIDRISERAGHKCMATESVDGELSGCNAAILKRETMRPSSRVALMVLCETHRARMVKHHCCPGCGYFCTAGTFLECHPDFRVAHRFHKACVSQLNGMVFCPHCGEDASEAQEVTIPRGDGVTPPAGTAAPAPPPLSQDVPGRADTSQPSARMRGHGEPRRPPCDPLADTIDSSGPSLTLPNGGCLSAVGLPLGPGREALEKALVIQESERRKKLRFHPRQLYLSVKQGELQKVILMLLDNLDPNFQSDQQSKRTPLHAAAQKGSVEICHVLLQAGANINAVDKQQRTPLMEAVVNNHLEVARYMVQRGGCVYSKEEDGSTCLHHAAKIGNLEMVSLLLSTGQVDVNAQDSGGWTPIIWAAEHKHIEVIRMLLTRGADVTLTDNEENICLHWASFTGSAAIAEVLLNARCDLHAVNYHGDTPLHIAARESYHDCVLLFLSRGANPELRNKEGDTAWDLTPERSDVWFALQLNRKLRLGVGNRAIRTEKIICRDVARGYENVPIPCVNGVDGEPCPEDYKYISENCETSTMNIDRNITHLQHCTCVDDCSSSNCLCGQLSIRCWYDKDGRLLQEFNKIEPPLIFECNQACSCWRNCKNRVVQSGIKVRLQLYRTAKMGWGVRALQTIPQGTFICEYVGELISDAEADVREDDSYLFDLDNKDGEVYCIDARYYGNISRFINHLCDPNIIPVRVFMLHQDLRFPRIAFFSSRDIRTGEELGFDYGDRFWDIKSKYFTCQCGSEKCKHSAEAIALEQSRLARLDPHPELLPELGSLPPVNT
T1 sequence (Q9H9B1 2-1298 limits assumed): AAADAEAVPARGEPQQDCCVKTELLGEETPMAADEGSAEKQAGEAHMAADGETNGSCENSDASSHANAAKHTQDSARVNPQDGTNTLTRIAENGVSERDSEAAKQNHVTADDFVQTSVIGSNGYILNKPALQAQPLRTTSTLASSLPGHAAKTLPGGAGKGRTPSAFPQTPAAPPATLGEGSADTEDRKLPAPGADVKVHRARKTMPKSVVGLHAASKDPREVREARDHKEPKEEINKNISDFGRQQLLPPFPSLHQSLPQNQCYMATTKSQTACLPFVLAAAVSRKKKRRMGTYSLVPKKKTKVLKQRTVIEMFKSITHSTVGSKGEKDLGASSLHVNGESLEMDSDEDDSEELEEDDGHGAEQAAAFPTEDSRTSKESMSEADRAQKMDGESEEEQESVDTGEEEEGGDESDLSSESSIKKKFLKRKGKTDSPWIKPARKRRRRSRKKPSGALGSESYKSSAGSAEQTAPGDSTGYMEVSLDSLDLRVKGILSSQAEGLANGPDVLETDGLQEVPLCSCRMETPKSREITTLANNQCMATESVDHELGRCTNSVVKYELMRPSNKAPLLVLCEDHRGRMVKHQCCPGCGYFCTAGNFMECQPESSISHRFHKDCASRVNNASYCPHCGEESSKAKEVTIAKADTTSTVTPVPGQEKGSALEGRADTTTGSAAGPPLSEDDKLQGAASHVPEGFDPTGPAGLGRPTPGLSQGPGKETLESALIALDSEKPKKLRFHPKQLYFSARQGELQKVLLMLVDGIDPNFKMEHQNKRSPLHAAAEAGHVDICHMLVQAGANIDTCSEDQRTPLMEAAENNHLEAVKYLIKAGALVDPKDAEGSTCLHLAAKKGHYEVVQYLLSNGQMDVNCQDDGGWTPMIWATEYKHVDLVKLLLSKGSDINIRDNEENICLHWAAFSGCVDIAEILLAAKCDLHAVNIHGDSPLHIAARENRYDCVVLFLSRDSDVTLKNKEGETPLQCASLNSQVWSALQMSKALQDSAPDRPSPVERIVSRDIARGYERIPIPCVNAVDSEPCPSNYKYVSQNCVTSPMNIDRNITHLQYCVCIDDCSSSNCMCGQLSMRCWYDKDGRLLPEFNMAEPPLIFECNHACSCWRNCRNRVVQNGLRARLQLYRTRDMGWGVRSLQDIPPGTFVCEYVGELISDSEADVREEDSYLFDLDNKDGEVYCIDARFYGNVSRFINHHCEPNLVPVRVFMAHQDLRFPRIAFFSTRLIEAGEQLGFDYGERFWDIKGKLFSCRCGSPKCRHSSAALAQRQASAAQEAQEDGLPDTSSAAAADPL


Columns and labels:
G9a and GLP = target: T1, G9a and GLP; experiment: Triple SILAC pull-down after UNC0638 treatment of 293T cells, DMSO/UNC0638 ratio of protein captured by 3×MBT; assay type: cell-based; set-up: cells were treated for 24 hours with UNC0638 at 2.5 μM or DMSO vehicle control; endogenous in cells; host or cells: HEK 293T; conditions: for Relative to UNC0638 UNC Heavy / Relative to UNC0638 UNC Light: SILAC ratio DMSO/UNC0638 of protein pulled down with 3xMBT; for Relative to UNC0638 UNC Heavy: UNC0638 in heavy SILAC media; for Relative to UNC0638 UNC Light: UNC0638 in light SILAC media; for Relative to UNC0638 Average: average of UNC Light and UNC Heavy experiments;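 as to all read-outs here: mass spectrometry (Q-Exactive) SILAC quantitation, DMSO/UNC0638 ratio computed after subtracting 3×MBTD355N mutant pull-down background, only proteins with at least twofold 3×MBT over mutant signal considered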
3×MBT domain of L3MBTL1 = experiment: Triple SILAC pull-down, 3xMBT/3xMBTD355N ratio (cytoplasmic, nuclear and chromatin fractions of 293T cells); assay type: binding, human; conditions: SILAC ratio, pull-down 3xMBT vs 3xMBTD355N; for 3xMBT/D355N UNC Heavy: experiment with UNC0638 in heavy SILAC media; for 3xMBT/D355N UNC Light: experiment with UNC0638 in light SILAC media;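 as to all read-outs here: proteins quantified with MaxQuant, requiring at least two unique peptides and quantification in both label directions, normalized to the mean of proteins from a digested loading control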

Row | Molecule | Relative to UNC0638 UNC Heavy (G9a and GLP) [log base 2] | Relative to UNC0638 UNC Light (G9a and GLP) [log base 2] | Relative to UNC0638 Average (G9a and GLP) [log base 2] | 3xMBT/D355N UNC Heavy (3×MBT domain of L3MBTL1) [log base 2] | 3xMBT/D355N UNC Light (3×MBT domain of L3MBTL1) [log base 2]
1 | DDX3X (protein, UniProt O00571 2-662, looked up) ATP-dependent RNA helicase …: SHVAVENALGLDQQFAGLDLNSSDNQSGGSTASKGRYIPPHLRNREATKGFYDKDSSGWSSSKDKDAYSSFGSRSDSRGKSSFFSDRGSGSRGRFDDRGRSDYDGIGSRGDRSGFGKFERGGNSRWCDKSDEDDWSKPLPPSERLEQELFSGGNTGINFEKYDDIPVEATGNNCPPHIESFSDVEMGEIIMGNIELTRYTRPTPVQKHAIPIIKEKRDLMACAQTGSGKTAAFLLPILSQIYSDGPGEALRAMKENGRYGRRKQYPISLVLAPTRELAVQIYEEARKFSYRSRVRPCVVYGGADIGQQIRDLERGCHLLVATPGRLVDMMERGKIGLDFCKYLVLDEADRMLDMGFEPQIRRIVEQDTMPPKGVRHTMMFSATFPKEIQMLARDFLDEYIFLAVGRVGSTSENITQKVVWVEESDKRSFLLDLLNATGKDSLTLVFVETKKGADSLEDFLYHEGYACTSIHGDRSQRDREEALHQFRSGKSPILVATAVAARGLDISNVKHVINFDLPSDIEEYVHRIGRTGRVGNLGLATSFFNERNINITKDLLDLLVEAKQEVPSWLENMAYEHHYKGSSRGRSKSSRFSGGFGARDYRQSSGASSSSFSSSRASSSRSGGGGHGSSRGFGGGGYGGFYNSDGYGGNYNSQGVDWWGN | 0.25 | 0.14 | 0.20 | 2.64 | 2.58
2 | CALD1 (protein, UniProt Q05682 1-793, looked up) Caldesmon: MDDFERRRELRRQKREEMRLEAERIAYQRNDDDEEEAARERRRRARQERLRQKQEEESLGQVTDQVEVNAQNSVPDEEAKTTTTNTQVEGDDEAAFLERLARREERRQKRLQEALERQKEFDPTITDASLSLPSRRMQNDTAENETTEKEEKSESRQERYEIEETETVTKSYQKNDWRDAEENKKEDKEKEEEEEEKPKRGSIGENQVEVMVEEKTTESQEETVVMSLKNGQISSEEPKQEEEREQGSDEISHHEKMEEEDKERAEAERARLEAEERERIKAEQDKKIADERARIEAEEKAAAQERERREAEERERMREEEKRAAEERQRIKEEEKRAAEERQRIKEEEKRAAEERQRIKEEEKRAAEERQRARAEEEEKAKVEEQKRNKQLEEKKHAMQETKIKGEKVEQKIEGKWVNEKKAQEDKLQTAVLKKQGEEKGTKVQAKREKLQEDKPTFKKEEIKDEKIKKDKEPKEEVKSFMDRKKGFTEVKSQNGEFMTHKLKHTENTFSRPGGRASVDTKEAEGAPQVEAGKRLEELRRRRGETESEEFEKLKQKQQEAALELEELKKKREERRKVLEEEEQRRKQEEADRKLREEEEKRRLKEEIERRRAEAAEKRQKMPEDGLSDDKKPFKCFTPKGSSLKIEERAEFLNKSVQKSSGVKSTHQAAIVSKIDSRLEQYTSAIEGTKSAKPTKPAASDLPVPAEGVRNIKSMWEKGNVFSSPTAAGTPNKETAGLKVGVSSRINEWLTKTPDGNKSPAPKPSDLRPGDVSSKRNLWEKQSVDKVTSPTKV | 0.29 | 0.09 | 0.19 | 3.53 | 3.50

Further lines, with some results ahead:

Row | Relative to UNC0638 UNC Heavy (G9a and GLP) [log base 2] | Relative to UNC0638 UNC Light (G9a and GLP) [log base 2] | Relative to UNC0638 Average (G9a and GLP) [log base 2] | Molecule | 3xMBT/D355N UNC Heavy (3×MBT domain of L3MBTL1) [log base 2] | 3xMBT/D355N UNC Light (3×MBT domain of L3MBTL1) [log base 2]
3 | 0.13 | 0.27 | 0.20 | DHX15 (protein, UniProt O43143 1-795, looked up) ATP-dependent RNA helicase …: MSKRHRLDLGEDYPSGKKRAGTDGKDRDRDRDREDRSKDRDRERDRGDREREREKEKEKELRASTNAMLISAGLPPLKASHSAHSTHSAHSTHSTHSAHSTHAGHAGHTSLPQCINPFTNLPHTPRYYDILKKRLQLPVWEYKDRFTDILVRHQSFVLVGETGSGKTTQIPQWCVEYMRSLPGPKRGVACTQPRRVAAMSVAQRVADEMDVMLGQEVGYSIRFEDCSSAKTILKYMTDGMLLREAMNDPLLERYGVIILDEAHERTLATDILMGVLKEVVRQRSDLKVIVMSATLDAGKFQIYFDNCPLLTIPGRTHPVEIFYTPEPERDYLEAAIRTVIQIHMCEEEEGDLLLFLTGQEEIDEACKRIKREVDDLGPEVGDIKIIPLYSTLPPQQQQRIFEPPPPKKQNGAIGRKVVVSTNIAETSLTIDGVVFVIDPGFAKQKVYNPRIRVESLLVTAISKASAQQRAGRAGRTRPGKCFRLYTEKAYKTEMQDNTYPEILRSNLGSVVLQLKKLGIDDLVHFDFMDPPAPETLMRALELLNYLAALNDDGDLTELGSMMAEFPLDPQLAKMVIASCDYNCSNEVLSITAMLSVPQCFVRPTEAKKAADEAKMRFAHIDGDHLTLLNVYHAFKQNHESVQWCYDNFINYRSLMSADNVRQQLSRIMDRFNLPRRSTDFTSRDYYINIRKALVTGYFMQVAHLERTGHYLTVKDNQVVQLHPSTVLDHKPEWVLYNEFVLTTKNYIRTCTDIKPEWLVKIAPQYYDMSNFPQCEAKRQLDRIIAKLQSKEYSQY | 2.98 | 2.54
4 | 0.23 | 0.15 | 0.19 | KIF2A (protein, UniProt O00139 1-706, looked up) Kinesin-like protein KIF2A: MATANFGKIQIGIYVEIKRSDGRIHQAMVTSLNEDNESVTVEWIENGDTKGKEIDLESIFSLNPDLVPDEEIEPSPETPPPPASSAKVNKIVKNRRTVASIKNDPPSRDNRVVGSARARPSQFPEQSSSAQQNGSVSDISPVQAAKKEFGPPSRRKSNCVKEVEKLQEKREKRRLQQQELREKRAQDVDATNPNYEIMCMIRDFRGSLDYRPLTTADPIDEHRICVCVRKRPLNKKETQMKDLDVITIPSKDVVMVHEPKQKVDLTRYLENQTFRFDYAFDDSAPNEMVYRFTARPLVETIFERGMATCFAYGQTGSGKTHTMGGDFSGKNQDCSKGIYALAARDVFLMLKKPNYKKLELQVYATFFEIYSGKVFDLLNRKTKLRVLEDGKQQVQVVGLQEREVKCVEDVLKLIDIGNSCRTSGQTSANAHSSRSHAVFQIILRRKGKLHGKFSLIDLAGNERGADTSSADRQTRLEGAEINKSLLALKECIRALGRNKPHTPFRASKLTQVLRDSFIGENSRTCMIATISPGMASCENTLNTLRYANRVKELTVDPTAAGDVRPIMHHPPNQIDDLETQWGVGSSPQRDDLKLLCEQNEEEVSPQLFTFHEAVSQMVEMEEQVVEDHRAVFQESIRWLEDEKALLEMTEEVDYDVDSYATQLEAILEQKIDILTELRDKVKSFRAALQEEEQASKQINPKRPRAL | 2.05 | 2.33
